This passage reports EC50 results from patent US20230374149A1 (SHANGHAI HANSOH BIOMEDICAL, published 2023).

In the experiment the target is T1, His-tagged human TROP-2 (TROP-2-His), SinoBiologics 10428-H08H (human, UniProt P09758 27-274).
T1 construct: Bought protein; also called TROP-2 His protein; human TROP-2 His antigen; not shown: His tag
T1 sequence: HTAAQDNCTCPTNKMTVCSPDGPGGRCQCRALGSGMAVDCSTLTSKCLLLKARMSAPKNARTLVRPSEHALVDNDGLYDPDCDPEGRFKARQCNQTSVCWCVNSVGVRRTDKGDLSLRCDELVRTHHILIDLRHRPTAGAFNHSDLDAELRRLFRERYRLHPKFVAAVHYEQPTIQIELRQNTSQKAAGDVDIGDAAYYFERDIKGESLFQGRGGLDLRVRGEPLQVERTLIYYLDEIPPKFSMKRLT
Briefly: indirect ELISA, coated TROP-2 His. In general terms: In an ELISA, binding on a coated surface is turned into a signal by an enzyme label.

B1: murine monoclonal antibody M1 (antibody, V domains shown)
VH: QVQLQQPGAELVRPGASVKLSCRASGYTFTNYWMNWVKQRPEQGLEWIGRIDPNDSETHYNQKFKDRAILTVDKASNTAYMQLSGLTSEDSAVHYCARSGFGSTYWFFDVWGAGTTVTVSS
VL: DIVMTQSHKFMSTSVGDRVSITCKASQDVSTAVAWYQQKPGQSPKLLIYSASYRYTGVPDRFAGSGYGTDFTFTISSVQTEDLTVYHCQQHYSTPLTFGPGTRLELK
notes: It is called a murine antibody, but the ELISA used a goat-anti-human secondary antibody
Molecule B1 came in with an EC50 of 0.56 nM.

Usually EC50 stands for the concentration needed to bring the measured effect to its halfway point.
